# Measurements taken from patent US20150344570A1 (published 2015).
# B1: GpH7-B3 variant K326_08L/GpL16-k0 (antibody, human IgG1, kappa)
# heavy: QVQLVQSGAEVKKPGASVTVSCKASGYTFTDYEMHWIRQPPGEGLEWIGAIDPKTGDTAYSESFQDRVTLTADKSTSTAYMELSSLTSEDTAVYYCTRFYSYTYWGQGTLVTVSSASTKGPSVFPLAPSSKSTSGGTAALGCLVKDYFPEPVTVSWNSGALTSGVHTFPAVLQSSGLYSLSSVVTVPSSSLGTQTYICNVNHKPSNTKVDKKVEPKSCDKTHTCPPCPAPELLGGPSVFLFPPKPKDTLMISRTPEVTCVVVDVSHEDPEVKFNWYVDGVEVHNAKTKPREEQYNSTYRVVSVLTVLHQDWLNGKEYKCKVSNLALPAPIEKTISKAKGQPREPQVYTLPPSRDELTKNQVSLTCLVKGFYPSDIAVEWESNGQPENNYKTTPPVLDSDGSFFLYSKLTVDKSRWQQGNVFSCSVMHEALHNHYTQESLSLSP
# light: DIVMTQSPLSLPVTPGEPASISCQASESLVHSNRNTYLHWYLQKPGQSPQLLIYKVSNRFSGVPDRFSGSGSGTDFTLKISRVEAEDVGVYYCSQNTHVPPTFGQGTKVEIERTVAAPSVFIFPPSDEQLKSGTASVVCLLNNFYPREAKVQWKVDNALQSGNSQESVTEQDSKDSTYSLSSTLTLSKADYEKHKVYACEVTHQGLSSPVTKSFNRGEC
# notes: also called Ho Ab K326_08L
# B2: GpH7-A5/GpH7-B3 variant K334_01G/GpL16-k0 (antibody, human IgG1, kappa)
# heavy 1: not shown
# heavy 2: not shown
# light: B1 light
# notes: also called He Ab K334_01G
# B3: GpH7-A5/GpH7-B3 variant I332_09D/GpL16-k0 (antibody, human IgG1, kappa)
# heavy 1: not shown
# heavy 2: not shown
# light: B1 light
# notes: also called He Ab I332_09D
# B4: GpH7-B3 variant Q295_10E/GpL16-k0 (antibody, human IgG1, kappa)
# heavy: not shown
# light: B1 light
# notes: also called Ho Ab Q295_10E
# B5: GpH7-B3 variant K326_15Y/GpL16-k0 (antibody, human IgG1, kappa)
# heavy: not shown
# light: B1 light
# notes: also called Ho Ab K326_15Y
# B6: GpH7-A5/GpH7-B3 variant H268_09D/GpL16-k0 (antibody, human IgG1, kappa)
# heavy 1: not shown
# heavy 2: not shown
# light: B1 light
# notes: also called He Ab H268_09D
# B7: GpH7-B3 variant S337_09D/GpL16-k0 (antibody, human IgG1, kappa)
# heavy: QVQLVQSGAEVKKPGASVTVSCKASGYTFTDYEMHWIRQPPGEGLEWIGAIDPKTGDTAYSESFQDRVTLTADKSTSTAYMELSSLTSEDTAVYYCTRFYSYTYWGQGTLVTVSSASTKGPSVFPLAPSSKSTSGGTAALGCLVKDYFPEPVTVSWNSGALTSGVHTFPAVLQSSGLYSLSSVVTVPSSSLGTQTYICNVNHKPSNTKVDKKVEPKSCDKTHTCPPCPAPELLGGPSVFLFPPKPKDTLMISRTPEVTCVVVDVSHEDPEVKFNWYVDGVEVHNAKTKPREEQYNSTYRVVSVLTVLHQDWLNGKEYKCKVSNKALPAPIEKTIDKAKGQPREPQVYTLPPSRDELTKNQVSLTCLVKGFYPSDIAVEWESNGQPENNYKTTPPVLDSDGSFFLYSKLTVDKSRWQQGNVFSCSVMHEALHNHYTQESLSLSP
# light: B1 light
# notes: also called Ho Ab S337_09D
# B8: GpH7-B3 variant S239_09D/GpL16-k0 (antibody, human IgG1, kappa)
# heavy: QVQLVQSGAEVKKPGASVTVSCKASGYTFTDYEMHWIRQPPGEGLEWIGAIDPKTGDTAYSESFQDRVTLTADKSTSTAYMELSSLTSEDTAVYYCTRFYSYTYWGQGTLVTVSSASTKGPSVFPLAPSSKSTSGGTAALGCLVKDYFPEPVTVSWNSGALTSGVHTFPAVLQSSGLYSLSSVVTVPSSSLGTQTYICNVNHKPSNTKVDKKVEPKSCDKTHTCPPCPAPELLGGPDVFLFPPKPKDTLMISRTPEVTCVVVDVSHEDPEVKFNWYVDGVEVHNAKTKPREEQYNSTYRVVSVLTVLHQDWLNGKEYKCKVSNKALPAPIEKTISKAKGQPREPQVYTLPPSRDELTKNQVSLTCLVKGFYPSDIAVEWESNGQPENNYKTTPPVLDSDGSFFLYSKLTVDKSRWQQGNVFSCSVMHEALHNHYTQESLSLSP
# light: B1 light
# notes: also called Ho Ab S239_09D
# B9: GpH7-B3 variant K334_09D/GpL16-k0 (antibody, human IgG1, kappa)
# heavy: not shown
# light: B1 light
# notes: also called Ho Ab K334_09D
# B10: GpH7-B3 variant S267_09D/GpL16-k0 (antibody, human IgG1, kappa)
# heavy: not shown
# light: B1 light
# notes: also called Ho Ab S267_09D
# B11: GpH7-A5/GpH7-B3 variant I332_02A/GpL16-k0 (antibody, human IgG1, kappa)
# heavy 1: not shown
# heavy 2: not shown
# light: B1 light
# notes: also called He Ab I332_02A
# B12: GpH7-A5/GpH7-B3 variant A330_04F/GpL16-k0 (antibody, human IgG1, kappa)
# heavy 1: not shown
# heavy 2: not shown
# light: B1 light
# notes: also called He Ab A330_04F
# B13: GpH7-B3 variant K334_19Q/GpL16-k0 (antibody, human IgG1, kappa)
# heavy: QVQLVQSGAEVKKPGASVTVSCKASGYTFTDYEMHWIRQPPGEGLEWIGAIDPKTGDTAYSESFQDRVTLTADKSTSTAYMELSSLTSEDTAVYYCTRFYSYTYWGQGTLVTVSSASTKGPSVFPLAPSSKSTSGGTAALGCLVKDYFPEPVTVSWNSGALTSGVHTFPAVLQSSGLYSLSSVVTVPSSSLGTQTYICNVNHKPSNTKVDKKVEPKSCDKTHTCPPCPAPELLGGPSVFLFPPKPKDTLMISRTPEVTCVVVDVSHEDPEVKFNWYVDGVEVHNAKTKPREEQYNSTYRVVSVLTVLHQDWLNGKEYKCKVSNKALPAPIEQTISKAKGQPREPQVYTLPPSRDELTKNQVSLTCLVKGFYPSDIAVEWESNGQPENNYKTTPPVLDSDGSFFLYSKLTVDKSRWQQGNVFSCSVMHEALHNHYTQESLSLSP
# light: B1 light
# notes: also called Ho Ab K334_19Q
# B14: GpH7-B3 variant T335_07I/GpL16-k0 (antibody, human IgG1, kappa)
# heavy: not shown
# light: B1 light
# notes: also called Ho Ab T335_07I
# B15: GpH7-B3 variant K334_16H/GpL16-k0 (antibody, human IgG1, kappa)
# heavy: not shown
# light: B1 light
# notes: also called Ho Ab K334_16H
# B16: GpH7-B3 variant Q295_02A/GpL16-k0 (antibody, human IgG1, kappa)
# heavy: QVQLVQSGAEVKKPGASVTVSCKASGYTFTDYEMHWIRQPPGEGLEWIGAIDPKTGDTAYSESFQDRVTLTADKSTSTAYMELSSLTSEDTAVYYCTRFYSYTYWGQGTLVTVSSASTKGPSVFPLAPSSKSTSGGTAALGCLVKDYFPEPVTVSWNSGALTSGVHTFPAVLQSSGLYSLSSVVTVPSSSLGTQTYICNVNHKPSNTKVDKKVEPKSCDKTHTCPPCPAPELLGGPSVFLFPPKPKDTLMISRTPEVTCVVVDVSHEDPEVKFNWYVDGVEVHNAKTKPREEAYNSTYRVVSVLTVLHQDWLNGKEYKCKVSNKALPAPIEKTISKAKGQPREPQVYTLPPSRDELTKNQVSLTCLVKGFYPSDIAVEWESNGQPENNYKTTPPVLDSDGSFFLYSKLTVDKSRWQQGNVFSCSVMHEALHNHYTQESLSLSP
# light: B1 light
# notes: also called Ho Ab Q295_02A
# B17: GpH7-A5/GpH7-B3 variant H268_13S/GpL16-k0 (antibody, human IgG1, kappa)
# heavy 1: not shown
# heavy 2: not shown
# light: B1 light
# notes: also called He Ab H268_13S
# B18: GpH7-B3 variant K334_03V/GpL16-k0 (antibody, human IgG1, kappa)
# heavy: not shown
# light: B1 light
# notes: also called Ho Ab K334_03V
# B19: GpH7-B3 variant K334_05P/GpL16-k0 (antibody, human IgG1, kappa)
# heavy: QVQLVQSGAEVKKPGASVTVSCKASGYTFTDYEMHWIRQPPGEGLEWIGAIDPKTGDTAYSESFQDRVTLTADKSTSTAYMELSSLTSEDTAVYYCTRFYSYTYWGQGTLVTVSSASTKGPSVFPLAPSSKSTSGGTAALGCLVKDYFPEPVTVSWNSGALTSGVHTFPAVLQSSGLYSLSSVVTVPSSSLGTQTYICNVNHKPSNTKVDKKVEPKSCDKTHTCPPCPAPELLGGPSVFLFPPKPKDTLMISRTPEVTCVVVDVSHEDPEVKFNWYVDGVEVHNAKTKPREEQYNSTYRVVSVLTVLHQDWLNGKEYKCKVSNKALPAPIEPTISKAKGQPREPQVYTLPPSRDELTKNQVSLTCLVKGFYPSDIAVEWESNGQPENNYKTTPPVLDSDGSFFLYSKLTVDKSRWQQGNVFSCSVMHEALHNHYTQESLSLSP
# light: B1 light
# notes: also called Ho Ab K334_05P
# B20: GpH7-A5/GpH7-B3 variant H268_10E/GpL16-k0 (antibody, human IgG1, kappa)
# heavy 1: not shown
# heavy 2: not shown
# light: B1 light
# notes: also called He Ab H268_10E
# B21: GpH7-B3 variant T335_10E/GpL16-k0 (antibody, human IgG1, kappa)
# heavy: not shown
# light: B1 light
# notes: also called Ho Ab T335_10E
# B22: GpH7-B3 variant K326_19Q/GpL16-k0 (antibody, human IgG1, kappa)
# heavy: not shown
# light: B1 light
# notes: also called Ho Ab K326_19Q
# B23: GpH7-B3 variant K334_18N/GpL16-k0 (antibody, human IgG1, kappa)
# heavy: not shown
# light: B1 light
# notes: also called Ho Ab K334_18N
# B24: GpH7-A5/GpH7-B3 variant I332_10E/GpL16-k0 (antibody, human IgG1, kappa)
# heavy 1: not shown
# heavy 2: not shown
# light: B1 light
# notes: also called He Ab I332_10E
# B25: GpH7-B3 variant S298_14T/GpL16-k0 (antibody, human IgG1, kappa)
# heavy: not shown
# light: B1 light
# notes: also called Ho Ab S298_14T
# B26: GpH7-B3 variant K334_15Y/GpL16-k0 (antibody, human IgG1, kappa)
# heavy: not shown
# light: B1 light
# notes: also called Ho Ab K334_15Y
# B27: GpH7-B3 variant K334_14T/GpL16-k0 (antibody, human IgG1, kappa)
# heavy: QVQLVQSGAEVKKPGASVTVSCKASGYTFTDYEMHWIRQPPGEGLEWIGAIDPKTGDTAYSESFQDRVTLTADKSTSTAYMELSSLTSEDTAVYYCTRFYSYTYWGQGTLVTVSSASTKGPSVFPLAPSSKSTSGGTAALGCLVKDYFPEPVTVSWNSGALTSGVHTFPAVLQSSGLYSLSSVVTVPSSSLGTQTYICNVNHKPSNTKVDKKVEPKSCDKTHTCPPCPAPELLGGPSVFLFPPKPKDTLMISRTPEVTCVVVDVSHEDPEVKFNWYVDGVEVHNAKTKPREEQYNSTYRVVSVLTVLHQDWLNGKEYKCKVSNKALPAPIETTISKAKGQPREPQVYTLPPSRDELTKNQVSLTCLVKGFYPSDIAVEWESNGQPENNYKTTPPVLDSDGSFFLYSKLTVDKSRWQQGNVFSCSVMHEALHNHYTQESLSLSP
# light: B1 light
# notes: also called Ho Ab K334_14T
# B28: GpH7-B3 variant S267_02A/GpL16-k0 (antibody, human IgG1, kappa)
# heavy: not shown
# light: B1 light
# notes: also called Ho Ab S267_02A
# B29: GpH7-B3 variant Q295_14T/GpL16-k0 (antibody, human IgG1, kappa)
# heavy: not shown
# light: B1 light
# notes: also called Ho Ab Q295_14T
# B30: GpH7-B3 variant K326_14T/GpL16-k0 (antibody, human IgG1, kappa)
# heavy: not shown
# light: B1 light
# notes: also called Ho Ab K326_14T
# B31: GpH7-B3 variant K334_02A/GpL16-k0 (antibody, human IgG1, kappa)
# heavy: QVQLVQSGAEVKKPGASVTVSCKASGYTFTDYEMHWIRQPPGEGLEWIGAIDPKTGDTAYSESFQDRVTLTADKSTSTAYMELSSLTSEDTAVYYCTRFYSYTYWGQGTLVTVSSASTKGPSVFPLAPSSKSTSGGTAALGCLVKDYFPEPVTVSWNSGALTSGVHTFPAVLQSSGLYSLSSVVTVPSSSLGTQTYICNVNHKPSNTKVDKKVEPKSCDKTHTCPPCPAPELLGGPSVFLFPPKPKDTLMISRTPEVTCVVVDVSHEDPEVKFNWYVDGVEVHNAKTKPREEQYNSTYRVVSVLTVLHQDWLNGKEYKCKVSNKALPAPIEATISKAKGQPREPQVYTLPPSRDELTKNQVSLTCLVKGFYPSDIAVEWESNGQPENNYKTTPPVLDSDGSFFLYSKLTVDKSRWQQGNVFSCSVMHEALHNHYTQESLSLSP
# light: B1 light
# notes: also called Ho Ab K334_02A
# B32: GpH7-A5/GpH7-B3 variant A330_20W/GpL16-k0 (antibody, human IgG1, kappa)
# heavy 1: not shown
# heavy 2: not shown
# light: B1 light
# notes: also called He Ab A330_20W
# B33: GpH7-B3 variant K334_10E/GpL16-k0 (antibody, human IgG1, kappa)
# heavy: not shown
# light: B1 light
# notes: also called Ho Ab K334_10E
# B34: GpH7-B3 variant K334_08L/GpL16-k0 (antibody, human IgG1, kappa)
# heavy: not shown
# light: B1 light
# notes: also called Ho Ab K334_08L
# B35: GpH7-B3 variant K334_07I/GpL16-k0 (antibody, human IgG1, kappa)
# heavy: not shown
# light: B1 light
# notes: also called Ho Ab K334_07I
# B36: GpH7-B3 variant K326_10E/GpL16-k0 (antibody, human IgG1, kappa)
# heavy: not shown
# light: B1 light
# notes: also called Ho Ab K326_10E
# B37: GpH7-B3 variant K334_04F/GpL16-k0 (antibody, human IgG1, kappa)
# heavy: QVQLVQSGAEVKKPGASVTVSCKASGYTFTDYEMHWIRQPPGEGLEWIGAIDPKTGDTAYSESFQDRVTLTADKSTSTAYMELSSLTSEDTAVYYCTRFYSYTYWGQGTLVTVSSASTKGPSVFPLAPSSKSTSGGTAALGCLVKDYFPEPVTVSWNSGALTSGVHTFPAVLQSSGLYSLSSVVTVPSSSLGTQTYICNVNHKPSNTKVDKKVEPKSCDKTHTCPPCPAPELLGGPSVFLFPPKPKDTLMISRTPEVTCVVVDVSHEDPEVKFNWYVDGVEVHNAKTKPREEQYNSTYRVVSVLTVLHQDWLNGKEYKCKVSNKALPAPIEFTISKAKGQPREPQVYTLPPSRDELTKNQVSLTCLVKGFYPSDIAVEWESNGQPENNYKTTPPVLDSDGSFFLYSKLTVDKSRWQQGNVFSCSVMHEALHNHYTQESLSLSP
# light: B1 light
# notes: also called Ho Ab K334_04F
# B38: GpH7-A5/GpH7-B3 variant I332_01G/GpL16-k0 (antibody, human IgG1, kappa)
# heavy 1: not shown
# heavy 2: not shown
# light: B1 light
# notes: also called He Ab I332_01G
# B39: GpH7-B3 variant K326_09D/GpL16-k0 (antibody, human IgG1, kappa)
# heavy: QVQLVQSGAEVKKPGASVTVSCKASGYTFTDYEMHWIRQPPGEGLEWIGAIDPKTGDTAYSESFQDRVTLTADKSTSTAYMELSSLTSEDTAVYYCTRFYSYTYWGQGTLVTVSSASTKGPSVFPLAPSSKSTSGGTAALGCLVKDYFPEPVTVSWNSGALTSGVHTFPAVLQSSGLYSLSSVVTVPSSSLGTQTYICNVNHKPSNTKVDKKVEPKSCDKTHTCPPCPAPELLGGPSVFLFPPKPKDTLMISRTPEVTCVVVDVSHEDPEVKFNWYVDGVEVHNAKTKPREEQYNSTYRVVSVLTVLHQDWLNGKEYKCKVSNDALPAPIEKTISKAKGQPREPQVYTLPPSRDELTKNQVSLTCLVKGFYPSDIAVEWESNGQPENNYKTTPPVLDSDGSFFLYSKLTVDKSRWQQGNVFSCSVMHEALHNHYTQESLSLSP
# light: B1 light
# notes: also called Ho Ab K326_09D
# B40: GpH7-B3 variant K334_13S/GpL16-k0 (antibody, human IgG1, kappa)
# heavy: not shown
# light: B1 light
# notes: also called Ho Ab K334_13S
# B41: GpH7-A5/GpH7-B3 variant A330_08L/GpL16-k0 (antibody, human IgG1, kappa)
# heavy 1: not shown
# heavy 2: not shown
# light: B1 light
# notes: also called He Ab A330_08L
# B42: GpH7-A5/GpH7-B3 variant E333_16H/GpL16-k0 (antibody, human IgG1, kappa)
# heavy 1: not shown
# heavy 2: not shown
# light: B1 light
# notes: also called He Ab E333_16H
# B43: GpH7-B3 variant S337_18N/GpL16-k0 (antibody, human IgG1, kappa)
# heavy: not shown
# light: B1 light
# notes: also called Ho Ab S337_18N
# B44: GpH7-B3 variant S337_10E/GpL16-k0 (antibody, human IgG1, kappa)
# heavy: not shown
# light: B1 light
# notes: also called Ho Ab S337_10E
# Biological target: T1, FcγRIIIa extracellular domain with C-terminal His tag (human, UniProt P08637 17-208)
# T1 construct: extracellular domain; also called FcgRIIIa; 3a; not shown: His tag attached to the C terminus
# Experiment: SPR Biacore, captured antibody, FcγR analyte, relative binding
# Method: Analysis of interaction between objective antibody and the FcγR was carried out using Biacore T100 (GE Healthcare). HBS-EP+ (GE Healthcare) was used as the running buffer, and the measurement temperature was set to 25° C. Chips produced by immobilizing the antigen peptide by the amine coupling method to a Series S Sencor Chip CM5 (GE Healthcare), or alternatively, chips produced by allowing preliminarily biotinylated antigen peptides to interact with and immobilize onto a Series S Sensor Chip SA (certified) (GE Healthcare) were used. Antibodies of interest were captured onto an antigen peptide-immobilized chip, and allowed to interact to each FcγR diluted with running buffer. To regenerate and repeatedly use the chip, the antibodies captured on the chip were washed off by reacting 10 mM glycine-HCl, pH 1.5.
# T1 sequence (P08637 17-208): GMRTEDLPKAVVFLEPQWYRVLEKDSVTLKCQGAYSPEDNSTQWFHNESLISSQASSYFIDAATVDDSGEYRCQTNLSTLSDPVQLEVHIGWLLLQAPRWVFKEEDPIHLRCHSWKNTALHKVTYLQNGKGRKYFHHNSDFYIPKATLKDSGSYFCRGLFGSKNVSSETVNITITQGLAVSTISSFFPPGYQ
Ho/Con_3a,He/Con_3a,Binder
114 % of HoCon Ab GpH7-B3/GpL16-k0 (=100),,B1
,121 % of HeCon Ab GpH7-A5/GpH7-B3/GpL16-k0 (=100),B2
,207 % of HeCon Ab GpH7-A5/GpH7-B3/GpL16-k0 (=100),B3
111 % of HoCon Ab GpH7-B3/GpL16-k0 (=100),,B4
115 % of HoCon Ab GpH7-B3/GpL16-k0 (=100),,B5
,197 % of HeCon Ab GpH7-A5/GpH7-B3/GpL16-k0 (=100),B6
106 % of HoCon Ab GpH7-B3/GpL16-k0 (=100),,B7
192 % of HoCon Ab GpH7-B3/GpL16-k0 (=100),,B8
150 % of HoCon Ab GpH7-B3/GpL16-k0 (=100),,B9
160 % of HoCon Ab GpH7-B3/GpL16-k0 (=100),,B10
,112 % of HeCon Ab GpH7-A5/GpH7-B3/GpL16-k0 (=100),B11
,147 % of HeCon Ab GpH7-A5/GpH7-B3/GpL16-k0 (=100),B12
150 % of HoCon Ab GpH7-B3/GpL16-k0 (=100),,B13
107 % of HoCon Ab GpH7-B3/GpL16-k0 (=100),,B14
153 % of HoCon Ab GpH7-B3/GpL16-k0 (=100),,B15
108 % of HoCon Ab GpH7-B3/GpL16-k0 (=100),,B16
,122 % of HeCon Ab GpH7-A5/GpH7-B3/GpL16-k0 (=100),B17
170 % of HoCon Ab GpH7-B3/GpL16-k0 (=100),,B18
165 % of HoCon Ab GpH7-B3/GpL16-k0 (=100),,B19
,186 % of HeCon Ab GpH7-A5/GpH7-B3/GpL16-k0 (=100),B20
102 % of HoCon Ab GpH7-B3/GpL16-k0 (=100),,B21
118 % of HoCon Ab GpH7-B3/GpL16-k0 (=100),,B22

Ho/Con_3a,He/Con_3a,Binder
156 % of HoCon Ab GpH7-B3/GpL16-k0 (=100),,B23
,233 % of HeCon Ab GpH7-A5/GpH7-B3/GpL16-k0 (=100),B24
107 % of HoCon Ab GpH7-B3/GpL16-k0 (=100),,B25
181 % of HoCon Ab GpH7-B3/GpL16-k0 (=100),,B26
163 % of HoCon Ab GpH7-B3/GpL16-k0 (=100),,B27
145 % of HoCon Ab GpH7-B3/GpL16-k0 (=100),,B28
108 % of HoCon Ab GpH7-B3/GpL16-k0 (=100),,B29
147 % of HoCon Ab GpH7-B3/GpL16-k0 (=100),,B30
154 % of HoCon Ab GpH7-B3/GpL16-k0 (=100),,B31
,104 % of HeCon Ab GpH7-A5/GpH7-B3/GpL16-k0 (=100),B32
206 % of HoCon Ab GpH7-B3/GpL16-k0 (=100),,B33
178 % of HoCon Ab GpH7-B3/GpL16-k0 (=100),,B34
180 % of HoCon Ab GpH7-B3/GpL16-k0 (=100),,B35
157 % of HoCon Ab GpH7-B3/GpL16-k0 (=100),,B36
168 % of HoCon Ab GpH7-B3/GpL16-k0 (=100),,B37
,111 % of HeCon Ab GpH7-A5/GpH7-B3/GpL16-k0 (=100),B38
163 % of HoCon Ab GpH7-B3/GpL16-k0 (=100),,B39
153 % of HoCon Ab GpH7-B3/GpL16-k0 (=100),,B40
,124 % of HeCon Ab GpH7-A5/GpH7-B3/GpL16-k0 (=100),B41
,103 % of HeCon Ab GpH7-A5/GpH7-B3/GpL16-k0 (=100),B42
102 % of HoCon Ab GpH7-B3/GpL16-k0 (=100),,B43
100 % of HoCon Ab GpH7-B3/GpL16-k0 (=100),,B44
